Here are results for one molecule from patent publication US9040054B2.

The target in the test is serum IgE of birch pollen allergic (Bet v 1 allergic) patients. The experiment in a line: ELISA inhibition: BM4 as inhibitor in serial dilutions, Bet v 1a immobilized at 200 ng/well, 5 sera.

B1: BM4 (protein)
chain: GVFNYETETTSVIPAARLFKAFILDGDNLFPKVAPQAISSVENIEGNGGPGTIKKISFPEGFPFKYVKDRVDEVDHTNFKYNYSVIEGGPIGDTLEKISNEIKIVATPSGSTIKSISNKYHTKGDHEVKAEQVKASKEMGETLLRAVESYLLAHSDAYN
In the case of B1, the fold reduced patients' IgE binding capacity compared to Bet v 1a fell in the range of 100 to 1000 fold.
